Test results as given in patent US20250171562A1 (ALK ABELL, published 2025).

Key:
IgE-Fc Cε3-4 [1] = molecular target: T1, IgE-Fc Cε3-4 (human, UniProt P01854-1 209-428, limits assumed); experiment: ELISA, immobilised IgE-Fc
T1 construct: domain: Cε3-Cε4; coated at 2 µg/mL in the ELISA; also called IgE-Fc Cε3-Cε4
Description: (§1) SdAb monomers of interest (table 1) and identified in example 2 were amplified from pNT plasmid by PCR and recloned in pET22b plasmid by SLICE cloning reaction. Thereby, a pelB signal sequence and a C-terminal his/HA tag were added to the sdAbs allowing for secretion into periplasmic space and subsequent purification and detection. SdAbs were expressed in E. coli Rosetta (DE3) cells using 2YT media. Expression was induced in early exponential phase with 0.5 mM IPTG and carried overnight at 20° C.-25° C. Purification of sdAbs from supernatant or supernatant+periplasmic extract was performed by IMAC using HisTrap excel column (Cytiva) as first step and by SEC with a Hiload 16-600 Superdex® 75 pg (Cytiva) column as second step. Size and purity of each sdAbs were evaluated on a 15% acrylamide SDS-PAGE. Then, immunoreactivity of sdAbs against immobilized IgE-Fc Cε2-4 and IgE-Fc Cε3-4 was analysed by ELISA. IgE-Fc were coated at 2 μg/mL overnight in a Nunc MaxiSorp plate (ThermoFisher). After blocking sdAbs were added at a 1:10 dilution in TBS and incubated 3h at room temperature. Detection was performed using a mouse anti-HA antibody (ThermoFisher) and an anti-mouse IgG AP conjugated (Sigma Aldrich).

IgE-Fc Cε2-4 = molecular target: T2, IgE-Fc Cε2-4 (human, UniProt P01854-1 104-428, limits assumed); experiment: ELISA, immobilised IgE-Fc
T2 construct: domain: Cε2-Cε4; coated at 2 µg/mL in the ELISA; also called IgE-Fc Cε2-Cε4
Description: as §1

IgE-Fc Cε3-4 [2] = molecular target: T1, IgE-Fc Cε3-4; experiment: ELISA, immobilised IgE-Fc Cε3-4
Description: as §1

[3] = molecular target: T3, biotinylated IgE: FcεRIα complex (UniProt P01854 104-428; P12319 26-205, biotinylated); experiment: yeast display titration, flow cytometry
T3 construct: preformed complex used for yeast display titration and deep mutational scanning; also called IgE-Fc/FcεRIα; IgE-Fc Cε2-Cε4/FcεRIα complex

biotinylated IgE Fc = molecular target: T4, biotinylated IgE Fc (UniProt P01854-1 104-428, biotinylated); experiment: BLI (Octet), IgE Fc on sensor, 1:1 fit
T4 construct: also called IgE Fc (made in-house ALK, Denmark)
Description: The biotinylated IgE Fc (made in-house ALK, Denmark) was immobilised on SAX (High precision streptavidin) sensors (FortéBIO) to max 1 nm. The association (240 s) and dissociation (600 s) were measured for the analytes in a serial dilution (from 10 nM to 0.37 nM). Data were subtracted to blank reference sensors exposed to the same serial analyte dilutions, aligned, and analysed in the Octet Data Analysis HT 11.1 Software (FortéBIO) using a 1:1 fitting model.

recombinant human IgE = molecular target: T5, recombinant human IgE (human, UniProt P01854-1 1-428); experiment: IgE-FcεRIα displacement ELISA
T5 construct: made in-house (ALK); preloaded on immobilised FcεRIα in the displacement ELISA
Summary of the method: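 Streptavidin-coated plates carried site-specifically biotinylated recombinant human FcεRIα, loaded with recombinant human IgE at 13 ng/ml. sdAbs in a pM–μM series were added for 1 h, and displaced IgE was washed off. Percent displacement was the signal reduction versus the no-sdAb control, giving EC50 and maximal effect.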

T1 sequence (P01854 other isoform, or with tags, fused parts or gaps limits assumed): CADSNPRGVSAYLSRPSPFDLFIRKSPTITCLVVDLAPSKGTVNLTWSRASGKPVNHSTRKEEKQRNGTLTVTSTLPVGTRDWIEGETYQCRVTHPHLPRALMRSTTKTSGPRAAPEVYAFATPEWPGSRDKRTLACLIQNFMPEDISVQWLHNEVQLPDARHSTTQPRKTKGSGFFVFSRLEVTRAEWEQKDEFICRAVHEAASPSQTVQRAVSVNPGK
T5 sequence (P01854 other isoform, or with tags, fused parts or gaps): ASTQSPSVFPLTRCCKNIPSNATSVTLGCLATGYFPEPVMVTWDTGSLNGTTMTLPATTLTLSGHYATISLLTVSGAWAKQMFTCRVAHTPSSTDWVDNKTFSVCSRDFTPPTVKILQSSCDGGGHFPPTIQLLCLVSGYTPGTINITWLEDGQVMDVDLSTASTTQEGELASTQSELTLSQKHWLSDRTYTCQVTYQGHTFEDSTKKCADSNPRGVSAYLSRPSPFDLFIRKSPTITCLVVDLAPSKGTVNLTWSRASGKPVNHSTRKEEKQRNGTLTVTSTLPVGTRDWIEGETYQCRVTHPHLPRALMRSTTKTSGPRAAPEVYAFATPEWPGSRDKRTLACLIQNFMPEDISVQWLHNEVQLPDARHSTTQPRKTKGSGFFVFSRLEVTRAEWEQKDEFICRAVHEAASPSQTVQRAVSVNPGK
T4 sequence (P01854 other isoform, or with tags, fused parts or gaps): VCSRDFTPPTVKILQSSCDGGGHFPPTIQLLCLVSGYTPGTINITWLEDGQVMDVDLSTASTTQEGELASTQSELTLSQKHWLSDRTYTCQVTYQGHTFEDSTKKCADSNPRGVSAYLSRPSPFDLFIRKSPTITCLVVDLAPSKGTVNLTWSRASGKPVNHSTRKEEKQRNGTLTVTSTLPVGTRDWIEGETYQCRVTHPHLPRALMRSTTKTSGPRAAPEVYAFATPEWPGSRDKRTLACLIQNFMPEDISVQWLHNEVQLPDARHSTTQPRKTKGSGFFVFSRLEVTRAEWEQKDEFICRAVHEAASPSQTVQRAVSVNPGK
T3 sequence (P12319 26-205, chain 2 of 2): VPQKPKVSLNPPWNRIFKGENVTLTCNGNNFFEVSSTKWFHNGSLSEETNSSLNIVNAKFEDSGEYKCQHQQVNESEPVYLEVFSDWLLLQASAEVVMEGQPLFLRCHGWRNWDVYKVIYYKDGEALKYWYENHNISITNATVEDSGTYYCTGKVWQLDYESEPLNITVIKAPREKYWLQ

binding result (IgE-Fc Cε3-4 [1]) | binding result (IgE-Fc Cε2-4) | binding result (IgE-Fc Cε3-4 [2]) | apparent Kd (pooled screen) [3] [nM] | Kd (biotinylated IgE Fc) [nM] | koff (biotinylated IgE Fc) [s⁻¹] | kon (biotinylated IgE Fc) [M⁻¹ s⁻¹] | EC50 (recombinant human IgE) [nM] | Max effect (recombinant human IgE) [%] | Binder
binds | binds | – | – | – | – | – | – | – | sdAb G1 (VHH) VHH: DVQLQESGGGLVQAGGSLRLSCAASGFIVSDNVMSWYRQAPGKQRDMVATIMLNGDTAHADSVKGRFTISRDHAKNTVYLQMNSLKPEDTAVYYCNARDSMLEPGRGAWGQGTLVTVS
– | binds | no binding | – | – | – | – | – | – | sdAb E4 (VHH) VHH: DVQLQESGGGLVQPGGSLRLSCAASGFRFSNYAMRWYRQAPGKEREFVARISSTGFITRYTASVRDRFTISRDNDKNMMYLQLNKLTPQDTAHYYCNAESTDYWGQGTQVTVS
– | – | – | 0.345 | 0.19 | 0.0002 | 1e+06 | 800 | > 95 | sdAb A1 (VHH, also called sdAb 026; IGE026) VHH: EVQLLESGGGLVQPGGSLRLSCAASGFTFGNYDMAWVRQAPGKRPEWVSSIDTGGDITHYADSVKGRFTISRDNAKNTLYLQMNSLRPEDTAVYWCATDEEYALGPNEFDYYGQGTLVTVSS
– | – | no binding | – | 81 | 0.02 | 240000 | 10000 | 50 | sdAb D2 (VHH) VHH: DVQLQESGGGLVEAGGSLRLSCVASGRTFSGWSMGWFRQAPGKEREFVAAISWVGSWIGGTVYSNSVKGRFTISRDNARTTVYLQMNSLKPEDTAVYFCAAANSETPRIFASEYDYWGQGTQVTVS
